# B1: ERT: enzyme replacement therapy in Fabry-Rag mice: recombinant human alpha-galactosidase A (Genzyme Corp.), 1 mg/kg intravenous (protein, UniProt P06280 32-429, looked up)
# Alpha-galactosidase A: LDNGLARTPTMGWLHWERFMCNLDCQEEPDSCISEKLFMEMAELMVSEGWKDAGYEYLCIDDCWMAPQRDSEGRLQADPQRFPHGIRQLANYVHSKGLKLGIYADVGNKTCAGFPGSFGYYDIDAQTFADWGVDLLKFDGCYCDSLENLADGYKHMSLALNRTGRSIVYSCEWPLYMWPFQKPNYTEIRQYCNHWRNFADIDDSWKSIKSILDWTSFNQERIVDVAGPGGWNDPDMLVIGNFGLSWNQQVTQMALWAIMAAPLFMSNDLRHISPQAKALLQDKDVIAINQDPLGKQGYQLRQGDNFEVWERPLSGLAWAVAMINRQEIGGPRSYTIAVASLGKGVACNPACFITQLLPVKRKLGFYEWTSRLRSHINPTGTVLLQLENTMQMSLKDLL
# B2: recombinant glucocerebrosidase: recombinant human glucocerebrosidase (Genzyme Corp.), enzyme therapy given to Gaucher mice (protein, UniProt P04062 40-536, looked up)
# Lysosomal acid …: ARPCIPKSFGYSSVVCVCNATYCDSFDPPTFPALGTFSRYESTRSGRRMELSMGPIQANHTGTGLLLTLQPEQKFQKVKGFGGAMTDAAALNILALSPPAQNLLLKSYFSEEGIGYNIIRVPMASCDFSIRTYTYADTPDDFQLHNFSLPEEDTKLKIPLIHRALQLAQRPVSLLASPWTSPTWLKTNGAVNGKGSLKGQPGDIYHQTWARYFVKFLDAYAEHKLQFWAVTAENEPSAGLLSGYPFQCLGFTPEHQRDFIARDLGPTLANSTHHNVRLLMLDDQRLLLPHWAKVVLTDPEAAKYVHGIAVHWYLDFLAPAKATLGETHRLFPNTMLFASEACVGSKFWEQSVRLGSWDRGMQYSHSIITNLLYHVVGWTDWNLALNPEGGPNWVRNFVDSPIIVDITKDTFYKQPMFYHLGHFSKFIPEGSQRVGLVASQKNDLDAVALMHPDGSAVVVVLNRSSKDVPLTIKDPAVGFLETISPGYSIHTYLWRRQ
# Key:
# [1] = Hygroscopicity of salts and free base; type: physicochemical
# Aqueous solubility = type: physicochemical; conditions: in water
# cytochrome P450 enzymes = assay: Hepatic metabolism by cytochrome P450 enzymes; type: in vitro ADME, human; conditions: liver
# From the text: Cytochrome P450s (“CYPs”) are the principal hepatic xenobiotic metabolizing enzymes. There are eleven xenobiotic-metabolizing cytochrome P450s expressed in a typical human liver (i.e., CYP1A2, CYP2A6, CYP2B6, CYP2C8/9/18/19, CYP2D6, CYP2E1 and CYP3A4/5). […] The level of activity of P450 enzymes differs according to the individual. For example, individuals can be classified as poor, intermediate and extensive/ultra rapid P450 metabolizers. Because lower levels of P450 activity in an individual can give rise to drug/drug interactions (“DDI”), another embodiment of the invention is to determine whether the subject is a poor, intermediate and extensive/ultra rapid P450 metabolizer. […] The dose can raised incrementally and the subject retested once, twice, three, four or as many times as necessary to achieve an adjusted effective dose.
# Fabry-Rag mice = assay: Combination ERT/SRT therapy of Fabry-Rag mice; type: in vivo, mouse; conditions: ERT 1 mg/kg α-galactosidase A i.v., SRT 300 mg/kg daily in diet
# Description: For the combination therapy studies, Fabry-Rag mice were put on study at 3 months old (treatment model). Mice in group A received intravenous injections of recombinant human alpha-galactosidase A (Genzyme Corp.) at a dose of 1 mg/kg every 2 months (i.e. 3, 5, 7 and 9 months old). Group B received the same intravenous enzyme doses plus it received Formula (I) Hemitartrate (Genzyme Corp., Cambridge, Mass.) as a component of the pellet food diet. The drug was formulated at 0.15% (w/w) in standard 5053 mouse chow (TestDiet, Richmond, Ind.) and provided ad libitum. […] Group C received enzyme injections every 4 months (i.e. 3 and 7 months old) and was on the same drug-in-food diet as group B. Group D received only the drug-in-food diet (same as groups B and C). Group E was untreated Fabry-Rag mice and group F were wild-type controls.
# Quantitation of GL-3 was by Tandem Mass Spectrometry essentially as for GL-1.
# Hot plate Assay was performed as described previously (Ziegler, R J et al. Molec. Ther. 15(3), 492-500 (2007).
# Beginning at three-months of age, the mice were subjected to a schedule of behavioral tests (i.e. hot-plate assay) and biochemical tests (i.e., GL-3 level analysis in tissues/blood/urine), as shown in FIG. 10.
# [2] = tested on: Gaucher mice (D409V/null); assay: Glucocerebrosidase dosing regimen for debulking GL1 in Gaucher mice; type: in vivo, mouse; conditions: for reduction of GL1 levels in the liver: 7 days after last infusion
# Description: To investigate the relative merits of combination and monotherapy with either enzyme or substrate reduction therapy, the enzyme regimen that maximally depleted GL1 levels in the visceral organs of Gaucher mice was first determined. Three month-old Gaucher mice (D409V/null) were intravenously administered 2, 4 or 8 doses of 10 mg/kg recombinant human glucocerebrosidase. The mice that were treated with 2 or 4 doses of the enzyme received drug infusions every 3 days while those that were treated with 8 doses received the enzyme every 2 days. The use of a shorter time interval between infusions in animals that received 8 treatments was designed to minimize the potential impact of any immune response to the administered human enzyme. The animals were killed 7 days following the last enzyme infusion and the amount of GL1 remaining in their livers, spleens, and lungs were measured.
# [3] = tested on: Gaucher mice (D409V/null); assay: Separate and sequential enzyme and substrate reduction therapy in Gaucher mice; type: in vivo, mouse
# From the text: Procedures involving animals were reviewed and approved by the Institutional Animal Care and Use Committee (IACUC) at Genzyme Corporation following the guidelines issued by the Association for Assessment and Accreditation of Laboratory Animal Care (AAALAC). […] The study had 6 groups of mice with group A being sacrificed after 2 weeks to provide baseline levels of tissue glucosylceramide. Groups B, C, and D all received recombinant human glucocerebrosidase (Genzyme Corp., Cambridge, Mass.) (10 mg/kg) intravenously via a tail-vein (100 μL) every 2 days for a total of 8 injections. Group B was sacrificed at the end of this regimen (at the same time as group A) to provide enzyme-reduced levels of tissue glucosylceramide. Groups D and E were both fed Formula (I) Hemitartrate (Genzyme Corp., Cambridge, Mass.) as a component of the pellet food diet. The drug was formulated at 0.075% (w/w) in standard 5053 mouse chow (TestDiet, Richmond, Ind.) and provided ad libitum. […] Group F received no treatment and was sacrificed along with groups C, D and E 12 weeks after the start of the study. Food consumption and mouse weights were monitored three times per week to determine drug intake and the potential impact of the drug on overall health. Animals were killed by carbon dioxide inhalation and their tissues harvested immediately. Half of each tissue was snap frozen on dry ice and stored at −80° C. until ready for further processing. The other half was processed for histological analysis.
# Glucosylceramide levels were quantified by mass spectrometry as described previously (see K. McEachern, et al., J. Gene. Med. 8 (2006) 719-729; T. Doering, J. Biol. Chem. 274 (1999) 11038-11045, the entire teachings of both are incorporated herein by reference). A known mass of tissue was homogenized in 2:1 (v/v) chloroform:methanol and incubated at 37° C. for 15 min. Samples were centrifuged and the supernatants were extracted with 0.2 volumes of water overnight at 4° C. The samples were centrifuged, the aqueous phase was discarded, and the organic phase was dried down to a film under nitrogen. For electrospray ionization mass spectrometry (ESI/MS) analysis, tissue samples were reconstituted to the equivalent of […] original tissue weight in 1 ml chloroform:methanol (2:1, v/v) and vortexed for 5 min. Aliquots (40 μL) of each sample were delivered to Waters total recovery vials and 50 μL of a 10 μg/mL d3-C16-GL-1 internal standard (Matreya, Inc., Pleasant Gap, Pa.) was added. Samples were dried under nitrogen and reconstituted with 200 μL of 1:4 (v/v) DMSO:methanol. ESI/MS analysis of glucosylceramides of different carbon chain lengths was performed on a Waters alliance HPLC (Separation Module 2695) coupled to a Micromass Quattro Micro system equipped with an electrospray ion source. Lipid extract samples (20 μL) were injected onto a C8 column ([…] i.d; Phenomenex, Torrance, Calif.) at 45° C. and eluted with a gradient of 50 to 100% acetonitrile (2 mM ammonium acetate, 0.1% formic acid) at 0.5 mL/min. The first 0.5 min. was held at 50% organic and then quickly switched to 100% for the final 3.5 min. The source temperature was held constant at 150° C. and nitrogen was used as the desolvation gas at a flow rate of 670 L/h. The capillary voltage was maintained at 3.80 KV with a cone voltage of 23 V, while the dwell time for each ion species was 100 ms. Spectra were acquired by the MRM mode to monitor eight dominant isoforms (C16:0, C18:0, C20:0, C22:1, C22:0, C22:1-OH, C24:1, and C24:0). Quantitation of glucosylceramide was based on the sum of these eight isoforms relative to the internal standard, with a calibration curve ranging from 0.1 to 10 μg/mL.
# For histological analysis, tissues were fixed in zinc formalin (Electron Microscopy Sciences, Hatfield, Pa.) at room temperature for 24 h, then stored in PBS at 4° C. until ready for further processing. […]
molecule,measurement,setting,value
CCCCCCCC(=O)N[C@H](CN1CCCC1)[C@H](O)c1ccc2c(c1)OCCO2 [hydrochloric acid (1:1)],hygroscopicity of the solid salt,"[1]; salt screen, Example 1",hygroscopic
CCCCCCCC(=O)N[C@H](CN1CCCC1)[C@H](O)c1ccc2c(c1)OCCO2 [Formula (I) Free Base],Aqueous solubility,Aqueous solubility,40 µg/mL
same,primary cytochrome P450 isoforms responsible for de-toxifying the compound,cytochrome P450 enzymes,CYP2D6 and CYP3A4
same,Hygroscopicity (40° C./75% RH),[1]; 40° C./75% RH,None
B1,onset of heat-insensitivity,Fabry-Rag mice,not
same,urine GL-3 levels,Fabry-Rag mice,does not
same,blood GL-3 levels,Fabry-Rag mice; from 3 months of age,reduces
B2,splenic GL1 levels versus untreated controls,[2]; 2 doses of 10 mg/kg i.v.,did not significantly alter
same,reduction of GL1 levels in the liver,[2]; 2 doses of 10 mg/kg i.v. every 3 days,50%
same,reduction of splenic GL1 levels,[2]; 4 or 8 doses of 10 mg/kg i.v.,about 50%
same,reduction of GL1 levels in the liver,[2]; 4 or 8 doses of 10 mg/kg i.v.,approximately 75%
same,"lung GL1, reduction to % of untreated control",[2]; 8 doses of 10 mg/kg i.v. every 2 days,approximately 60%
same,"liver histopathology, CD68-positive Gaucher cells","[3]; 2 weeks enzyme, then 10 weeks without further treatment",re-emergence of Gaucher cells
same,"liver histopathology, CD68-positive Gaucher cells",[3]; enzyme over a period of 2 weeks,substantial clearance of the lipid
same,stored GL1 levels cleared from the liver,[3]; group B: 8 doses of 10 mg/kg enzyme over 2 weeks,Approximately 80%
same,reduction of splenic GL1 levels,[3]; group B: enzyme alone for 2 weeks,approximately 60%
same,reduction in substrate (GL1) levels in the lung,[3]; group B: enzyme for 2 weeks,30%
same,splenic GL1 levels versus untreated control (F),"[3]; group C: 2 weeks enzyme, then 10 weeks without further intervention",not significantly different
same,liver GL1 levels versus untreated controls (F),"[3]; group C: 2 weeks enzyme, then 10 weeks without further treatment",not significantly different
same,lung GL1 levels versus untreated levels (F),"[3]; group C: 2 weeks enzyme, then normal chow for 10 weeks",not significantly different

# Reference: patent US10888547B2, “Amorphous and a crystalline form of genz 112638 hemitartrate as inhibitor of glucosylceramide synthase” (Genzyme Corporation, priority 2009, dated 2021)
